Reference: patent US20140087995A1 (published 2014)
Numbered stars: 1 amine (or outer) side, 2 acyl side, 3 side chain; on linkers, the order of the positions; unused ones are H or OH. Bridge positions count the residues as written; N and C are the ends. Side chains are listed from the residue outwards. Ends that are not written are not given here. * marks the point of attachment. C20 diacid = O=C(O)CCCCCCCCCCCCCCCCCCC(=O)*; γGlu = O=C(O)[C@H](CCC(=O)[*:2])N[*:1]; AEEA = NCCOCCOCC(=O)O

B1: N^α1-[(4S)-4-carboxy-4-(19-carboxynonadecanoylamino)butanoyl]-[Glu14,Arg17,Pro21,Pro27,Pro37]-h-amylin (peptide)
peptide: {C20 diacid-γGlu}-KCNTATCATQRLAEFLRHSSPNFGAIPSSTNVGSNTP-NH2
modifications: disulfide 2-7
SMILES: CC[C@H](C)[C@H](NC(=O)[C@H](C)NC(=O)CNC(=O)[C@H](Cc1ccccc1)NC(=O)[C@H](CC(N)=O)NC(=O)[C@@H]1CCCN1C(=O)[C@H](CO)NC(=O)[C@H](CO)NC(=O)[C@H](Cc1c[nH]cn1)NC(=O)[C@H](CCCNC(=N)N)NC(=O)[C@H](CC(C)C)NC(=O)[C@H](Cc1ccccc1)NC(=O)[C@H](CCC(=O)O)NC(=O)[C@H](C)NC(=O)[C@H](CC(C)C)NC(=O)[C@H](CCCNC(=N)N)NC(=O)[C@H](CCC(N)=O)NC(=O)[C@@H](NC(=O)[C@H](C)NC(=O)[C@@H]1CSSC[C@H](NC(=O)[C@H](CCCCN)NC(=O)CC[C@H](NC(=O)CCCCCCCCCCCCCCCCCCC(=O)O)C(=O)O)C(=O)N[C@@H](CC(N)=O)C(=O)N[C@@H]([C@@H](C)O)C(=O)N[C@@H](C)C(=O)N[C@@H]([C@@H](C)O)C(=O)N1)[C@@H](C)O)C(=O)N1CCC[C@H]1C(=O)N[C@@H](CO)C(=O)N[C@@H](CO)C(=O)N[C@H](C(=O)N[C@@H](CC(N)=O)C(=O)N[C@H](C(=O)NCC(=O)N[C@@H](CO)C(=O)N[C@@H](CC(N)=O)C(=O)N[C@H](C(=O)N1CCC[C@H]1C(N)=O)[C@@H](C)O)C(C)C)[C@@H](C)O
notes: also called compound 8
B2: N^α1-[(4S)-4-carboxy-4-(19-carboxynonadecanoylamino)butanoyl]-[Asp14,Arg17,Pro21,Pro27,Pro37]-h-amylin (peptide)
peptide: {C20 diacid-γGlu}-KCNTATCATQRLADFLRHSSPNFGAIPSSTNVGSNTP-NH2
modifications: disulfide 2-7
SMILES: CC[C@H](C)[C@H](NC(=O)[C@H](C)NC(=O)CNC(=O)[C@H](Cc1ccccc1)NC(=O)[C@H](CC(N)=O)NC(=O)[C@@H]1CCCN1C(=O)[C@H](CO)NC(=O)[C@H](CO)NC(=O)[C@H](Cc1c[nH]cn1)NC(=O)[C@H](CCCNC(=N)N)NC(=O)[C@H](CC(C)C)NC(=O)[C@H](Cc1ccccc1)NC(=O)[C@H](CC(=O)O)NC(=O)[C@H](C)NC(=O)[C@H](CC(C)C)NC(=O)[C@H](CCCNC(=N)N)NC(=O)[C@H](CCC(N)=O)NC(=O)[C@@H](NC(=O)[C@H](C)NC(=O)[C@@H]1CSSC[C@H](NC(=O)[C@H](CCCCN)NC(=O)CC[C@H](NC(=O)CCCCCCCCCCCCCCCCCCC(=O)O)C(=O)O)C(=O)N[C@@H](CC(N)=O)C(=O)N[C@@H]([C@@H](C)O)C(=O)N[C@@H](C)C(=O)N[C@@H]([C@@H](C)O)C(=O)N1)[C@@H](C)O)C(=O)N1CCC[C@H]1C(=O)N[C@@H](CO)C(=O)N[C@@H](CO)C(=O)N[C@H](C(=O)N[C@@H](CC(N)=O)C(=O)N[C@H](C(=O)NCC(=O)N[C@@H](CO)C(=O)N[C@@H](CC(N)=O)C(=O)N[C@H](C(=O)N1CCC[C@H]1C(N)=O)[C@@H](C)O)C(C)C)[C@@H](C)O
notes: also called compound 10
B3: N^α1-[(4S)-4-carboxy-4-(19-carboxynonadecanoylamino)butanoyl]-[Glu14,Arg17,Pro21,Pro27,Asp35,Pro37]-h-amylin (peptide)
peptide: {C20 diacid-γGlu}-KCNTATCATQRLAEFLRHSSPNFGAIPSSTNVGSDTP-NH2
modifications: disulfide 2-7
SMILES: CC[C@H](C)[C@H](NC(=O)[C@H](C)NC(=O)CNC(=O)[C@H](Cc1ccccc1)NC(=O)[C@H](CC(N)=O)NC(=O)[C@@H]1CCCN1C(=O)[C@H](CO)NC(=O)[C@H](CO)NC(=O)[C@H](Cc1c[nH]cn1)NC(=O)[C@H](CCCNC(=N)N)NC(=O)[C@H](CC(C)C)NC(=O)[C@H](Cc1ccccc1)NC(=O)[C@H](CCC(=O)O)NC(=O)[C@H](C)NC(=O)[C@H](CC(C)C)NC(=O)[C@H](CCCNC(=N)N)NC(=O)[C@H](CCC(N)=O)NC(=O)[C@@H](NC(=O)[C@H](C)NC(=O)[C@@H]1CSSC[C@H](NC(=O)[C@H](CCCCN)NC(=O)CC[C@H](NC(=O)CCCCCCCCCCCCCCCCCCC(=O)O)C(=O)O)C(=O)N[C@@H](CC(N)=O)C(=O)N[C@@H]([C@@H](C)O)C(=O)N[C@@H](C)C(=O)N[C@@H]([C@@H](C)O)C(=O)N1)[C@@H](C)O)C(=O)N1CCC[C@H]1C(=O)N[C@@H](CO)C(=O)N[C@@H](CO)C(=O)N[C@H](C(=O)N[C@@H](CC(N)=O)C(=O)N[C@H](C(=O)NCC(=O)N[C@@H](CO)C(=O)N[C@@H](CC(=O)O)C(=O)N[C@H](C(=O)N1CCC[C@H]1C(N)=O)[C@@H](C)O)C(C)C)[C@@H](C)O
notes: also called compound 11
B4: N^ε-[2-[2-[2-[[(4S)-4-carboxy-4-(19-carboxynonadecanoylamino)butanoyl]amino]ethoxy]ethoxy]acetyl]Lys[Arg1,Arg17,Pro21,Pro27,His35]-h-amylin (peptide)
peptide: K([AEEA-γGlu-C20 diacid])RCNTATCATQRLANFLRHSSPNFGAIPSSTNVGSHTY-NH2
modifications: disulfide 3-8; N-terminus assumed
SMILES: CC[C@H](C)[C@H](NC(=O)[C@H](C)NC(=O)CNC(=O)[C@H](Cc1ccccc1)NC(=O)[C@H](CC(N)=O)NC(=O)[C@@H]1CCCN1C(=O)[C@H](CO)NC(=O)[C@H](CO)NC(=O)[C@H](Cc1c[nH]cn1)NC(=O)[C@H](CCCNC(=N)N)NC(=O)[C@H](CC(C)C)NC(=O)[C@H](Cc1ccccc1)NC(=O)[C@H](CC(N)=O)NC(=O)[C@H](C)NC(=O)[C@H](CC(C)C)NC(=O)[C@H](CCCNC(=N)N)NC(=O)[C@H](CCC(N)=O)NC(=O)[C@@H](NC(=O)[C@H](C)NC(=O)[C@@H]1CSSC[C@H](NC(=O)[C@H](CCCNC(=N)N)NC(=O)[C@@H](N)CCCCNC(=O)COCCOCCNC(=O)CC[C@H](NC(=O)CCCCCCCCCCCCCCCCCCC(=O)O)C(=O)O)C(=O)N[C@@H](CC(N)=O)C(=O)N[C@@H]([C@@H](C)O)C(=O)N[C@@H](C)C(=O)N[C@@H]([C@@H](C)O)C(=O)N1)[C@@H](C)O)C(=O)N1CCC[C@H]1C(=O)N[C@@H](CO)C(=O)N[C@@H](CO)C(=O)N[C@H](C(=O)N[C@@H](CC(N)=O)C(=O)N[C@H](C(=O)NCC(=O)N[C@@H](CO)C(=O)N[C@@H](Cc1c[nH]cn1)C(=O)N[C@H](C(=O)N[C@@H](Cc1ccc(O)cc1)C(N)=O)[C@@H](C)O)C(C)C)[C@@H](C)O
notes: Acylated analogue of human amylin, extended by one residue at the N-terminus; also called compound 45
B5: N^ε1-[(4S)-4-carboxy-4-(19-carboxynonadecanoylamino)butanoyl]-[Arg17,Pro21,Pro27]-h-amylin (peptide)
peptide: K([γGlu-C20 diacid])CNTATCATQRLANFLRHSSPNFGAIPSSTNVGSNTY-NH2
modifications: disulfide 2-7; N-terminus assumed
SMILES: CC[C@H](C)[C@H](NC(=O)[C@H](C)NC(=O)CNC(=O)[C@H](Cc1ccccc1)NC(=O)[C@H](CC(N)=O)NC(=O)[C@@H]1CCCN1C(=O)[C@H](CO)NC(=O)[C@H](CO)NC(=O)[C@H](Cc1c[nH]cn1)NC(=O)[C@H](CCCNC(=N)N)NC(=O)[C@H](CC(C)C)NC(=O)[C@H](Cc1ccccc1)NC(=O)[C@H](CC(N)=O)NC(=O)[C@H](C)NC(=O)[C@H](CC(C)C)NC(=O)[C@H](CCCNC(=N)N)NC(=O)[C@H](CCC(N)=O)NC(=O)[C@@H](NC(=O)[C@H](C)NC(=O)[C@@H]1CSSC[C@H](NC(=O)[C@@H](N)CCCCNC(=O)CC[C@H](NC(=O)CCCCCCCCCCCCCCCCCCC(=O)O)C(=O)O)C(=O)N[C@@H](CC(N)=O)C(=O)N[C@@H]([C@@H](C)O)C(=O)N[C@@H](C)C(=O)N[C@@H]([C@@H](C)O)C(=O)N1)[C@@H](C)O)C(=O)N1CCC[C@H]1C(=O)N[C@@H](CO)C(=O)N[C@@H](CO)C(=O)N[C@H](C(=O)N[C@@H](CC(N)=O)C(=O)N[C@H](C(=O)NCC(=O)N[C@@H](CO)C(=O)N[C@@H](CC(N)=O)C(=O)N[C@H](C(=O)N[C@@H](Cc1ccc(O)cc1)C(N)=O)[C@@H](C)O)C(C)C)[C@@H](C)O
notes: Acylated analogue of human amylin; also called compound 48

Experiments:
[1] = target: T1, human amylin 3(a) receptor (human calcitonin receptor + RAMP-3) (human, UniProt P30988 25-474; O60896 24-148, limits assumed); assay: cell-based or functional assay
T1 sequence (looked up) 1: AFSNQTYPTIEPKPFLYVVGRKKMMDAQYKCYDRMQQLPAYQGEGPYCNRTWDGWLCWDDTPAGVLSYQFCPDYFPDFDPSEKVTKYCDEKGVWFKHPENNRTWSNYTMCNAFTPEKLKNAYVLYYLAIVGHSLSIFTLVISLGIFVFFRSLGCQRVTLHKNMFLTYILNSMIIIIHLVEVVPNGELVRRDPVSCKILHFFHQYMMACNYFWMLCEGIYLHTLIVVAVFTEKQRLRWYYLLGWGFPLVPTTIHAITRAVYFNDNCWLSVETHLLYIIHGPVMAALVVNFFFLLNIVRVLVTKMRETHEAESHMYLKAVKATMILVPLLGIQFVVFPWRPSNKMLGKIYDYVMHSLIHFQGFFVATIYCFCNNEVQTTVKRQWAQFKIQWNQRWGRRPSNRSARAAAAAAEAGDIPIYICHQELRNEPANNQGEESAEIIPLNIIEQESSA
T1 sequence (looked up) 2: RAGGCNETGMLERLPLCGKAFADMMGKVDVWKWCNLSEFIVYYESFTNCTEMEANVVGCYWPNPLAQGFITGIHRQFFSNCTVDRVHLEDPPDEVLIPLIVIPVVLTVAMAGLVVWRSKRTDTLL

[2] = target: T2, human calcitonin receptor (human, UniProt P30988 25-474); assay: cell-based or functional assay
T2 sequence (looked up): T1 sequence (looked up) 1

[3] = target: T3, rat amylin receptor (rat calcitonin receptor + rat RAMP 3) (rat, UniProt P32214 25-516; Q9JJ73 23-147); assay: SPA competition vs 125I-rat amylin, membranes with rat CTR + rat RAMP3 (Assay VI)
T3 construct: whole, on cells; Cell membranes of transiently transfected BHK tk'ts 13 cells (Assay VI); also called rAmylin-R; rat amylin 3(a) receptor
T3 sequence (looked up) 1: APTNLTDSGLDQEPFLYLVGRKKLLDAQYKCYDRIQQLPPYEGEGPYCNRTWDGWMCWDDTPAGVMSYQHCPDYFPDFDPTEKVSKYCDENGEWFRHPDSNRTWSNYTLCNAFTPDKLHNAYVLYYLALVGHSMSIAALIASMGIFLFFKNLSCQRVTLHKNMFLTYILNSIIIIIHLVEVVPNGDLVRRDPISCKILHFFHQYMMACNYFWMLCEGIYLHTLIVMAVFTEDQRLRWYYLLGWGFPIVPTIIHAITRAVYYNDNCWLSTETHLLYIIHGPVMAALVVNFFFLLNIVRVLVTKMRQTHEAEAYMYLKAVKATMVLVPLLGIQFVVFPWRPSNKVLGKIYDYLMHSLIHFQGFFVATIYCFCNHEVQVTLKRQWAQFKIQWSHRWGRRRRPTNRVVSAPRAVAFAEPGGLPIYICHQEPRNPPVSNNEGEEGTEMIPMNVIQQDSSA
T3 sequence (looked up) 2: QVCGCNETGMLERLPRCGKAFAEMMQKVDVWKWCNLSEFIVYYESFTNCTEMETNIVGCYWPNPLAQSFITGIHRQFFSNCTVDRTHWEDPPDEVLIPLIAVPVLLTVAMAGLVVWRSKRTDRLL

rat calcitonin receptor [4] = target: T4, rat calcitonin receptor (rat, UniProt P32214 25-516); assay: SPA competition vs 125I-calcitonin, membranes with rat CTR (Assay VIII)
T4 construct: whole, on cells; Cell membranes of transiently transfected BHK tk'ts 13 cells (Assay VIII); also called rCTR; rCT
T4 sequence (looked up): T3 sequence (looked up) 1

[5] = target: T5, human calcitonin receptor (human, UniProt P30988 25-474); assay: ratio IC50 human calcitonin receptor / IC50 human amylin receptor
T5 construct: whole, on cells; Cell membranes of a stably transfected BHK cell line (Assay VII); also called hCTR; hCT
T5 sequence (looked up): T1 sequence (looked up) 1
Method in brief: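 Scintillation proximity competition binding on cell membranes at 35 ng/μL with SPA beads, in 50 mM Hepes pH 7.4, 1 mM CaCl2, 5 mM MgCl₂, 0.1% OA, 0.02% Tween20. Incubated 120 min at 25° C with shaking. IC₅₀ from one-site competition fit.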

rat calcitonin receptor [6] = target: T4, rat calcitonin receptor; assay: ratio IC50 rat calcitonin receptor / IC50 rat amylin receptor

Binder | hAmylin-R funct. EC50 (pM) [1] [pM] | Ratio hCT/hAmylin funct. [2] | IC50 [3] [nM] | IC50 (rat calcitonin receptor [4]) [nM] | Ratio hCT/hAmylin binding [5] | Ratio rCT/rAmylin binding (rat calcitonin receptor [6])
B1 | 82 | 1.1 |  |  |  | 
B2 | 72 | 1 |  |  |  | 
B3 | 120 | 0.9 |  |  |  | 
B4 |  |  | 0.623 | 41.8 | 26.8 | 67.1
B5 |  |  | 0.558 | 112 | 69.7 | 201
